Assay: yeast display, Sf9 membrane polyspecificity reagent, FACS + sequencing; frameworks hold sequencing errors
In short: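 In a synthetic yeast display library (Saccharomyces cerevisiae BJ5465), nanobody expression was induced with galactose for 36–48 hours. FACS gates were set low and high (top ~1%) using anti-HA fluorescence for expression and streptavidin fluorescence for binding of the Sf9 membrane reagent. Each polyreactivity label is drawn from the gate of origin.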

Row | Sequence | polyreactivity (PSR sort gate)
1 | QVQLVESGGGLVQAGGSLRLSCAASGRIFGVYAMGWYRQAPGKERELVADISWSADSTYYADSVKGRFTISRDNAKNTVYLQMNSLKPEDTAVYYCAADALFNVQNSRGYDYWGQGTQVTVSS | low polyreactivity
2 | QVQLVESGGGLVQAGGSLRLSCAASGRIFGWNAMGWYRQAPGKERELVAVIDTGGSTNYADSVKGRFTISRDNAKNTVYLQMNSLKPEDTAVYYCAAVTGIRYFTSEYDYWGQGTQVTVSS | low polyreactivity
3 | QVQLVESGGGLVQAGGSLRLSCAASGRIFGWYAMGWYRQAPGKERELVAAINRGGSTNYADSVKGRFTISRDNAKNTVYLQMNSLSPEDTGVYYCAVRGVHYTAVTNIIYGYGYWGQGTQVTVSS | high polyreactivity
4 | QVQLVESGGGLVQAGGSLRLSCAASGRIFGYNAMGWYIQAPGKERELVAVITYSGGSTYYADSVKGRFTISRDNAKNTVYLQMNSLKPEDTAVYYCNARPIDRYSGSGKQWPDYNYWGQGTQVTVSS | low polyreactivity
5 | QVQLVESGGGLVQAGGSLRLSCAASGRIFGYNAMGWYRLAPGKERELVAAIRSGGSTNYADSVKGRFTISRDNAKNTVYLQMNSLKPEDTAVYYCAADDRWWYTPRPRYNYWGQGTQVTVSS | high polyreactivity
6 | QVQLVESGGGLVQAGGSLRLSCAASGRIFGYNAMGWYRQAPGKERELVAAIRRSGNTYADSVKGRFTISRDNAKNTVYLQMNSLKPEDTAVYYCAHRVSKRMYYWGQGTQVTVSS | high polyreactivity
7 | QVQLVESGGGLVQAGGSLRLSCAASGRIFGYNAMGWYRQAPGKERELVATISSGGGTNYADSVKGRFTISRDNAKNTVYLQMNSLKPEDTAVYYCNARIVYYYKRYTRDYEYWGQGTQVTVSS | low polyreactivity
8 | QVQLVESGGGLVQAGGSLRLSCAASGRIFGYNAMGWYRQAPGKVRELVAAITTSGGSTYYADSVTGRFTISRDTAKNTVYLQMNSLKPEDTAVYYCARDSLQVFYQYASDDYWGQGTQVTVSS | low polyreactivity
9 | QVQLVESGGGLVQAGGSLRLSCAASGRIFGYNAMGWYRQAPGTERELVAAISSSGGGTYYADSVKGRFTISRDNAKNTVYLQMNSLKPEDTAVYYCAAYTRPGRYDYWGQGTQVTVSS | high polyreactivity
10 | QVQLVESGGGLVQAGGSLRLSCAASGRIFGYYAMGWYRPAPGKERELVAGITSGGITNYADSVKGRFTISRDNAKNTVYLQMNSLKPEDTAVYYCAARSGYYYRVKFYYWGQGTQVSVSS | high polyreactivity
11 | QVQLVESGGGLVQAGGSLRLSCAASGRIFGYYAMGWYRQAPGKERELVAAIRRSGGSTYADSVKGRFTISRDNAKNTVYLQMNSLKPEDTAVYYCAAGHYWFTKGYHTLYDMDYWGQGTQVTVSS | high polyreactivity
12 | QVQLVESGGGLVQAGGSLRLSCAASGRIFGYYAMGWYRQAPGKERELVAAISWSGGSTFYADSVKGRFTISRDYAKNTVYLQMISLKPEDTAVYYCNKDHLVYPSEFYYWGQGTQVTVSS | low polyreactivity
13 | QVQLVESGGGLVQAGGSLRLSCAASGRIFGYYAMGWYRQAPGKERELVAAITINGGRTYYADSVKGRFTISRDNAKNTVYLQMNSLKPEDTAVYYCTATSRYNRLGYWGQGTQVTVSS | high polyreactivity
14 | QVQLVESGGGLVQAGGSLRLSCAASGRIFGYYAMGWYRQAPGKERELVAAITSGGRTNYADSVKGRFTISRDNAKNTVYLQMNSLKPEDTAVYYCAKEYPRYSSPYDYWGQGTQVTVSS | low polyreactivity
15 | QVQLVESGGGLVQAGGSLRLSCAASGRIFGYYAMGWYRQAPGKERELVAAITSGGRTYYADSVKGRFTISRDNAKNTVYLHMNSLKPEDTAVYYCAAVRALRKVRDYYYWGQGTQVTVSS | high polyreactivity
16 | QVQLVESGGGLVQAGGSLRLSCAASGRIFGYYAMGWYRQAPGKERELVAAITWGGGTTRYADSVKGRFTISRDNAKNTVYLQMNSLKPEDTAVYYCATALWVRYYGQGGYIRRYDYWGQGTQVTVSS | high polyreactivity
17 | QVQLVESGGGLVQAGGSLRLSCAASGRIFGYYAMGWYRQAPGKERELVARITWSGGDTYYADSVKGRFTISRDNAKNTVYLQMNSLKPEDTAVYYCAADYLDSTYGYVYGWDDYWGQGTQVTVSS | low polyreactivity
18 | QVQLVESGGGLVQAGGSLRLSCAASGRIFGYYAMGWYRQAPGKERELVDSISSNGTSTYYADSVKGRFTISRDNAKNTVYLQMNSLKPEDTAVYYCAASYWYDKAYDYWGHGTQVTVSS | low polyreactivity
19 | QVQLVESGGGLVQAGGSLRLSCAASGRIFGYYAMGWYRQATGKERELVADITESGTSTYYADSVKGRFTISRDNAKNTVYLQMNSLKPEDTAVYYCAAGYWWRYALYVYWGQGTQVTVSS | low polyreactivity
20 | QVQLVESGGGLVQAGGSLRLSCAASGRIFGYYSMGWYRQAPGKEREFVSTINSVGSTNYADSVKGRFTISRDNAKNTVYLKMNSLKAEDTAVYYGATDSAYTFFSYRLWRHGYWGQGTQVTVSS | low polyreactivity
21 | QVQLVESGGGLVQAGGSLRLSCAASGRIFGYYTMGSYRQAPGKEREFVASISSTGGSTYYADSVKGRFTISRDNAKNTVYLQMNSLKPEDTAVYYCAARGRYVIDGYRMYYWGQGTQVTVSS | high polyreactivity
22 | QVQLVESGGGLVQAGGSLRLSCAASGRIFGYYTMGWYRQAPGKERELVAAINGRGTSTYYADSVKGRFTISRDNAKNTVYLQMNSLKPEDTAVYYCAADGYTRADDYWGQGTQVTVSS | high polyreactivity

Row | Sequence | polyreactivity (PSR sort gate)
23 | QVQLVESGGGLVQAGGSLRLSCAASGRIFGYYVMGWYRQAPGTERELVAAITGGGGSTYYADSVKGRFTISRDNAKNTVYLQMNSLKPEDNAVYYCAADLEDTTYEYDYWGQGTQVTVSS | high polyreactivity
24 | QVQLVESGGGLVQAGGSLRLSCAASGRIFHFIAMGWYRQAPGKERELVATITKRGGRTYYADSVKGRFTISRDNAKNTVYLQMNSLKPEDTAVYYCNADQSRYSAVSGYDYWGQGTQVTVSS | high polyreactivity
25 | QVQLVESGGGLVQAGGSLRLSCAASGRIFHFNAMGWYRQAPGTEKELVATITKRGGRTYYADSVKGRFTISRDNAKNTVYLQMNSLKPDDTAVYYCNADQTRYSAVSGYDYWGQGTQVTVSS | high polyreactivity
26 | QVQLVESGGGLVQAGGSLRLSCAASGRIFHGYAMGWYRQAPGKERDLDAAISWRGDSTYYADSVKGRFTISRDNAKNTVYLQINSLKPEDTAVYYCAAASRSWRDDYWGQCTQVTVSS | low polyreactivity
27 | QVQLVESGGGLVQAGGSLRLSCAASGRIFHNYAMGWYRQAPGKERELVAGISSRGGSTYYADSVKGRFTISRDNAKNTVYLQMNSLKPEDTAVYYCAKDKSPYGYATNQYRKYYYWGQGTQVTVSS | low polyreactivity
28 | QVQLVESGGGLVQAGGSLRLSCAASGRIFHRNAMGWYRQAPGKERELVATIRGNGGSTYYADSVKGRFTISRDNAKNTVYLQMNSLKPEDTAVYYCALDAQGYGGWWTYSRFYSWGQGTQVTVSS | high polyreactivity
29 | QVQLVESGGGLVQAGGSLRLSCAASGRIFHRYAMGWYRQAPGKEREFVAAITYSTGTTYYADSVKGRFTISRDNAKNTVYLQMNSLKPEDTAVYYCAKDSRFWHKSWFAYGYDYWGQGTQVTVSS | low polyreactivity
30 | QVQLVESGGGLVQAGGSLRLSCAASGRIFHSNTKGWYRQAPGKERELVARISSVGSTNYADSVKGRFTISRDNAKNTVYLQMNSQKPEDTAVYYCAAQRYYTQSSYYLALYDFWGQGTQVTVSS | low polyreactivity
31 | QVQLVESGGGLVQAGGSLRLSCAASGRIFHWYAMGWYSQAPGKERELVAAISTDGSTYYADSVKGRFTISRDNAKNTVYLQKNSLKPEDTAVYYCAAVPGYTHLWGGPFDYGGQGTQVTVSS | low polyreactivity
32 | QVQLVESGGGLVQAGGSLRLSCAASGRIFHWYTMGWYRQAPGKEMELVAAISGSGGSTHYADSVKGRLTISRDNAKNTVYLQMNSLKPEDTAVYYCAAYIPVRYGTSDRGYWGQGTQVTVSS | low polyreactivity
33 | QVQLVESGGGLVQAGGSLRLSCAASGRIFHYAMGWYRQAPGKERELVAGISKRGGSTYYADSVKGRFTISRDNAKNTVYLQMNSLKPEDTAVYYCAAGRAYDGTKHDYWGQGTQVTVSS | high polyreactivity
34 | QVQLVESGGGLVQAGGSLRLSCAASGRIFIAYAMGWYRKAPAKERELVAAITDDGGTNYADSVKGRFTISRDNAKNTVYLQMKSLKPEDTAVYYCAATYLIGYYYVWEYDYWGQGTQVTVSS | low polyreactivity
35 | QVQLVESGGGLVQAGGSLRLSCAASGRIFIAYAMGWYRQAPWKEREFVAAISSRGGSTYYADSVKGRFTISRDNAKNTVYLQMNSLKPEDTAVYYCGAWTLYWSHTTWSYDYWGQGTQVTVSS | low polyreactivity
36 | QVQLVESGGGLVQAGGSLRLSCAASGRIFIIYAMGWYRQAPGKEREFVAAITSSGGSTYYADSVKGRFTISRDNAKNTVYLQMYSLKPEDTAVYYCNKVTRYYREYHRDSQYGYWGQGTQVTVSS | high polyreactivity
37 | QVQLVESGGGLVQAGGSLRLSCAASGRIFILNTMGWYRQAPGKERELLAGISYSGSTYYADSVKGRFTISRDNAKNTVYLQMNSLKPDDTAVYYCAADYDAAWYNDGYYYWGQGTQVTVSS | low polyreactivity
38 | QVQLVESGGGLVQAGGSLRLSCAASGRIFILYAMGWYRQAPGKERELVAAITGGSTYYADSVKGRFTISRDNAKNTVYLQMNSLKPEDSAVYYCAADVRHYIWEYYYWGQGTQVTVSS | low polyreactivity
39 | QVQLVESGGGLVQAGGSLRLSCAASGRIFIPYAMGWYRQAPGKERELVAVISWNGGSTYYADSVKGRFTISRDNAKNTVYLQMNSLKPEDTAVYYCAADTYPYAKMDYWGQGTQVTVSS | low polyreactivity
40 | QVQLVESGGGLVQAGGSLRLSCAASGRIFIRAMGCYTQAPGKERELVAGITNGGITYYADSVKGRFTISRDNAKTTVYLQMNSLKPEDTAVYSCNARSRSVLYKYDYWGQGTQETVSS | low polyreactivity
41 | QVQLVESGGGLVQAGGSLRLSCAASGRIFIRNAMGWYRQAPGKERELVAAISRSGGRTYYADSVKGRFTISRDNAKNTVYLQMNSLKQEDTAVYYCARTTPYFNVDCGGYDYWGQGTQVTVSS | high polyreactivity
42 | QVQLVESGGGLVQAGGSLRLSCAASGRIFIRYAMGWYRQAPGKERELVAGITSGGDTYYADSVKGRFTISRDNAKNTVYLQMNSLKPEDTAVYYCARVRYGRMDYWGQGTQVTVSS | high polyreactivity
43 | QVQLVESGGGLVQAGGSLRLSCAASGRIFIVNAMGWYRQATGKERELVAAISYRGGSTYYADSVKGRFTISRDNAKNTVYLQMNRLKPEDTAVYYCAADRYSYLGYPYEYEYWGQGTQVTVSS | low polyreactivity

Source: the nanobody polyreactivity screen of Harvey et al. (2022)
